Experimental data reported in patent US12161669.

Key:
[1] = target: RhoB GTPase, recombinant (full length RhoB with the C-terminal CKVL motif deleted, six-HIS tag, expressed in E. coli) (UniProt P62745); test: BLI (BLItz), RhoB immobilised on Ni-NTA biosensor, B30.2 domain in solution, 1:1 fit, no pAg
[2] = target: RhoB GTPase, recombinant (full length RhoB with the C-terminal CKVL motif deleted, six-HIS tag, expressed in E. coli) (UniProt P62745); test: BLI (BLItz), RhoB immobilised on Ni-NTA biosensor, B30.2 domain in solution, 1:1 fit, no pAg; kd(1/Ms) [sic]
[3] = target: RhoB GTPase, recombinant (full length RhoB with the C-terminal CKVL motif deleted, six-HIS tag, expressed in E. coli) (UniProt P62745); test: BLI (BLItz), RhoB immobilised on Ni-NTA biosensor, BFI in solution, 1:1 fit, no pAg
[4] = target: RhoB GTPase, recombinant (full length RhoB with the C-terminal CKVL motif deleted, six-HIS tag, expressed in E. coli) (UniProt P62745); test: BLI (BLItz), RhoB immobilised on Ni-NTA biosensor, BFI in solution with the phosphoantigen cHDMAPP at 1:1
[5] = target: RhoB GTPase, recombinant (full length RhoB with the C-terminal CKVL motif deleted, six-HIS tag, expressed in E. coli) (UniProt P62745); test: BLI (BLItz), RhoB immobilised on Ni-NTA biosensor, BFI in solution with the phosphoantigen cHDMAPP at 1:1; kd(1/Ms) [sic]
[6] = target: RhoB GTPase, recombinant (full length RhoB with the C-terminal CKVL motif deleted, six-HIS tag, expressed in E. coli) (UniProt P62745); test: BLI (BLItz), RhoB immobilised on Ni-NTA biosensor, BFI in solution, 1:1 fit, no pAg; kd(1/Ms) [sic]

Substance | Kd [1] | koff [1] | kon [2] | Kd [3] | koff [3] | Kd [4] | koff [4] | kon [5] | kon [6]
BTN3A1 (CD277) B30.2 domain, recombinant (from UniProt O00481 328-513) (receptor) | 102 µM | 0.206 s⁻¹ | 2020 M⁻¹ s⁻¹ | – | – | – | – | – | –
BTN3A1 (CD277) full-length intracellular domain, recombinant (from UniProt O00481 272-513) (receptor) | – | – | – | 19.7 µM | 0.0435 s⁻¹ | 666 µM | 0.115 s⁻¹ | 172 M⁻¹ s⁻¹ | 2200 M⁻¹ s⁻¹
